{"source": "patent US20160304571", "key": {"[1]": {"molecular_target": "Lys6-linked diubiquitin, P0CG48", "sequence (P0CG48 whole entry, looked up)": "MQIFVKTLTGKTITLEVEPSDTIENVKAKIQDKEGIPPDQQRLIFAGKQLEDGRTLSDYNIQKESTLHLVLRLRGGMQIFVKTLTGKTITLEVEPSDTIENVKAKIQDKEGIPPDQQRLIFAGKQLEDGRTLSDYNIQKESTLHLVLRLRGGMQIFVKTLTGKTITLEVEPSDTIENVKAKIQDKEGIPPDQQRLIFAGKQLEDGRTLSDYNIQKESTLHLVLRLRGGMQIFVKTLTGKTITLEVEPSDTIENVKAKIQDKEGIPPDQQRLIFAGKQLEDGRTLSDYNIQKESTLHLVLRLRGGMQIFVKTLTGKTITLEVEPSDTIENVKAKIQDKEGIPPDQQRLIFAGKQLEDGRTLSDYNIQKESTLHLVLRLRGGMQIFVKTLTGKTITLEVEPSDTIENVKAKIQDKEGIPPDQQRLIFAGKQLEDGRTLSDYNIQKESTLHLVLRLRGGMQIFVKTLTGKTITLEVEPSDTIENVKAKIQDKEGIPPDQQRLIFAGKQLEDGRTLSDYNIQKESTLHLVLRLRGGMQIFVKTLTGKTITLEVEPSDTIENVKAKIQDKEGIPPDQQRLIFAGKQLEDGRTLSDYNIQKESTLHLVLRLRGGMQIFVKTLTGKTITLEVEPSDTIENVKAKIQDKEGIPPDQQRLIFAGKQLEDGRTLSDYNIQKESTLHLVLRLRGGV"}, "[2]": {"molecular_target": "Lys29-linked diubiquitin, P0CG48", "sequence (P0CG48 whole entry, looked up)": "as above"}, "[3]": {"molecular_target": "Lys63-linked diubiquitin (enzymatically assembled), P0CG48", "sequence (P0CG48 whole entry, looked up)": "as above"}}, "data": [{"protein": "USP15 (protein) MAEGGAADLDTQRSDIATLLKTSLRKGDTWYLVDSRWFKQWKKYVGFDSWDKYQMGDQNVYPGPIDNSGLLKDGDAQSLKEHLIDELDYILLPTEGWNKLVSWYTLMEGQEPIARKVVEQGMFVKHCKVEVYLTELKLCENGNMNNVVTRRFSKADTIDTIEKEIRKIFSIPDEKETRLWNKYMSNTFEPLNKPDSTIQDAGLYQGQVLVIEQKNEDGTWPRGPSTPKSPGASNFSTLPKISPSSLSNNYNNMNNRNVKNSNYCLPSYTAYKNYDYSEPGRNNEQPGLCGLSNLGNTCFMNSAIQCLSNTPPLTEYFLNDKYQEELNFDNPLGMRGEIAKSYAELIKQMWSGKFSYVTPRAFKTQVGRFAPQFSGYQQQDCQELLAFLLDGLHEDLNRIRKKPYIQLKDADGRPDKVVAEEAWENHLKRNDSIIVDIFHGLFKSTLVCPECAKISVTFDPFCYLTLPLPMKKERTLEVYLVRMDPLTKPMQYKVVVPKIGNILDLCTALSALSGIPADKMIVTDIYNHRFHRIFAMDENLSSIMERDDIYVFEININRTEDTEHVIIPVCLREKFRHSSYTHHTGSSLFGQPFLMAVPRNNTEDKLYNLLLLRMCRYVKISTETEETEGSLHCCKDQNINGNGPNGIHEEGSPSEMETDEPDDESSQDQELPSENENSQSEDSVGGDNDSENGLCTEDTCKGQLTGHKKRLFTFQFNNLGNTDINYIKDDTRHIRFDDRQLRLDERSFLALDWDPDLKKRYFDENAAEDFEKHESVEYKPPKKPFVKLKDCIELFTTKEKLGAEDPWYCPNCKEHQQATKKLDLWSLPPVLVVHLKRFSYSRYMRDKLDTLVDFPINDLDMSEFLINPNAGPCRYNLIAVSNHYGGMGGGHYTAFAKNKDDGKWYYFDDSSVSTASEDQIVSKAAYVLFYQRQDTFSGTGFFPLDRETKGASAATGIPLESDEDSNDNDNDIENENCMHTN", "values": [{"measurement": "cleavage in in vitro deubiquitinase assay (SDS-PAGE)", "setting": "[1]", "result": "disassembled this chain type as efficiently as K63-linked chains"}, {"measurement": "cleavage in in vitro deubiquitinase assay (SDS-PAGE)", "setting": "[2]", "result": "appreciably higher resistance to hydrolysis by USP2, USP15 and USP21 than K6- and K63-linked ubiquitin"}, {"measurement": "cleavage in in vitro deubiquitinase assay (SDS-PAGE)", "setting": "[3]", "result": "disassembled this chain type as efficiently as K63-linked chains"}]}]}
